{"source": "the RNAGym collection of RNA variant scans (doi:10.7554/elife.80360)", "parents": {"B1": {"name": "HDV Ribozyme (parent)", "chain": "GGCCGGCAUGGUCCCAGCCUCCUCGCUGGCGCCGGCUGGGCAACAUUCCGAGGGGACCGUCCCCUCGGUAAUGGCGAAUGGGACCCA"}}, "data": [{"variants_of": "B1", "assay": "self-cleavage, relative activity (ratio to wild type); higher = more cleavage; co-transcriptional", "values": [{"variant": "GGCCGGCAUGGUCUCAGCCUCCUCGCUGGCGCCGGCUGGUCAACAUUCCGAGGGGACCGUCCCCUCGGUAAUGGCGAAUGGGACCCA", "note": "[C14U G40U]", "self-cleavage": 0.724}, {"variant": "GGCCGGCAUGGUCGCAGCCUCCUCGCUGGCGCCGGCUGGGCAACACUCCGAGGGGACCGUCCCCUCGGUAAUGGCGAAUGGGACCCA", "note": "[C14G U46C]", "self-cleavage": 0.511}, {"variant": "GGCCGGCAUGGUCCAAGCCUGCUCGCUGGCGCCGGCUGGGCAACAUUCCGAGGGGACCGUCCCCUCGGUAAUGGCGAAUGGGACCCA", "note": "[C15A C21G]", "self-cleavage": 0}, {"variant": "GGCCGGCAUGGUCUCAGCCUCCUCGCUGGCGCCGGCUGGGCAACAUUCCGGGGGGACCGUCCCCUCGGUAAUGGCGAAUGGGACCCA", "note": "[C14U A51G]", "self-cleavage": 0.898}, {"variant": "GGCCGGCAUGGUCUCAGCCUCCUCGCUGGCGCCGGCUGGGCAACAUUCCGAUGGGACCGUCCCCUCGGUAAUGGCGAAUGGGACCCA", "note": "[C14U G52U]", "self-cleavage": 1.04}, {"variant": "GGCCGGCAUGGUCUCAGCCUCCUCGCUGGCGACGGCUGGGCAACAUUCCGAGGGGACCGUCCCCUCGGUAAUGGCGAAUGGGACCCA", "note": "[C14U C32A]", "self-cleavage": 0.101}, {"variant": "GGCCGGCAUGGUCUCAGCCUCCUCGCUGGCGCCGGCUGGGCAACAUUCCGAGGGGACCGUCCCCUCGGUAAUGGCGAAUGGGCCCCA", "note": "[C14U A83C]", "self-cleavage": 0.499}, {"variant": "GGCCGGCAUGGUCUCAGCCUCCUCGUUGGCGCCGGCUGGGCAACAUUCCGAGGGGACCGUCCCCUCGGUAAUGGCGAAUGGGACCCA", "note": "[C14U C26U]", "self-cleavage": 1.07}, {"variant": "GGCCGGCAUGGUCUCAGCCUCCUCGCUGGCGCCGGCUGGGCAACAUUCCGAGGGGACCGUCCCGUCGGUAAUGGCGAAUGGGACCCA", "note": "[C14U C64G]", "self-cleavage": 1.24}, {"variant": "GGCCGGCAUGGUCUCAGCCUCCUCGCUGGCGCCGGCUGGGCACCAUUCCGAGGGGACCGUCCCCUCGGUAAUGGCGAAUGGGACCCA", "note": "[C14U A43C]", "self-cleavage": 0.364}, {"variant": "GGCCGGCAUGGUCGCAGCCUCCUCGCUGGCGCCGGCUGGGCAACAUUCCGAGGGGACCGUCCCCUCGUUAAUGGCGAAUGGGACCCA", "note": "[C14G G68U]", "self-cleavage": 0.277}, {"variant": "GGCCGGCAUGGUCUCAGCCUCCUCGCUGGCGCCGGGUGGGCAACAUUCCGAGGGGACCGUCCCCUCGGUAAUGGCGAAUGGGACCCA", "note": "[C14U C36G]", "self-cleavage": 0.322}, {"variant": "GGCCGGCAUGGUCCAAGUCUCCUCGCUGGCGCCGGCUGGGCAACAUUCCGAGGGGACCGUCCCCUCGGUAAUGGCGAAUGGGACCCA", "note": "[C15A C18U]", "self-cleavage": 0.295}, {"variant": "GGCCGGCAUGGUCUCAGCCUCCUCGCUGGCGCCGGCUGGGCAACAUUCCGAGGGGACCGUCCCCUCGGUAAGGGCGAAUGGGACCCA", "note": "[C14U U72G]", "self-cleavage": 0.598}, {"variant": "GGCCGGCAUGGUCUCAGCCUCCUCGCUGGCGCCGGCUGGGCAACAUUCCGAGGGGACCGUCCCCUCGGUAAAGGCGAAUGGGACCCA", "note": "[C14U U72A]", "self-cleavage": 0.745}, {"variant": "GGCCGGCAUGGUCUCAGCCUCCUCGCUGGCGCCGGCUGGGCAACAUUCCGAGGGGACCGUCCCCUCGGUAAUGGCAAAUGGGACCCA", "note": "[C14U G76A]", "self-cleavage": 1.49}, {"variant": "GGCCGGCAUGGUCUCAGCCUCUUCGCUGGCGCCGGCUGGGCAACAUUCCGAGGGGACCGUCCCCUCGGUAAUGGCGAAUGGGACCCA", "note": "[C14U C22U]", "self-cleavage": 0.935}, {"variant": "GGCCGGCAUGGUCUCAGCCUCCUCGCUGGCACCGGCUGGGCAACAUUCCGAGGGGACCGUCCCCUCGGUAAUGGCGAAUGGGACCCA", "note": "[C14U G31A]", "self-cleavage": 0.475}, {"variant": "GGCCGGCAUGGUCUCAGCCUCCUCGCUGGCGCCGGCUGGGCAACAUUCCGAGGGGACCGUCCCCUCGGUAAUGGCGAAGGGGACCCA", "note": "[C14U U79G]", "self-cleavage": 0.89}, {"variant": "GGCCGGCAUGGUCGCAGCCUCCUCGCUGGCGCCGGCUGGGCAACAUUCCGAGGGGACCGUCCCCCCGGUAAUGGCGAAUGGGACCCA", "note": "[C14G U65C]", "self-cleavage": 0.8}, {"variant": "GGCCGGCAUGGUCGCAGCCUCCUCGCUGGCGCCGGCUGGGCAACAUUCCGAGGGGACCGUCCCCACGGUAAUGGCGAAUGGGACCCA", "note": "[C14G U65A]", "self-cleavage": 0.65}, {"variant": "GGCCGGCAUGGUCUCAGCCUCCUCGCUGGCGCCGGCUGGGAAACAUUCCGAGGGGACCGUCCCCUCGGUAAUGGCGAAUGGGACCCA", "note": "[C14U C41A]", "self-cleavage": 1.06}, {"variant": "GGCCGGCAUGGUCUCAGCCUCCUCGCUGGCGCCGGCUGGGGAACAUUCCGAGGGGACCGUCCCCUCGGUAAUGGCGAAUGGGACCCA", "note": "[C14U C41G]", "self-cleavage": 1.06}, {"variant": "GGCCGGCAUGGUCUCAGCCUCCUCGCUGGCGCUGGCUGGGCAACAUUCCGAGGGGACCGUCCCCUCGGUAAUGGCGAAUGGGACCCA", "note": "[C14U C33U]", "self-cleavage": 0.975}, {"variant": "GGCCGGCAUGGUCUCAGCCUCCUCGCUGGCGCCGGCUGGGCAACAUUCCGAGGGGACCGUCCCCUCGGUAAUGGCGAAUGUGACCCA", "note": "[C14U G81U]", "self-cleavage": 0.729}, {"variant": "GGCCGGCAUGGUCUCAGCCUCCUCGCUGGCGCCGGCUGGGCAACAUUCGGAGGGGACCGUCCCCUCGGUAAUGGCGAAUGGGACCCA", "note": "[C14U C49G]", "self-cleavage": 0.831}, {"variant": "GGCCGGCAUGGUCCACGCCUCCUCGCUGGCGCCGGCUGGGCAACAUUCCGAGGGGACCGUCCCCUCGGUAAUGGCGAAUGGGACCCA", "note": "[C15A A16C]", "self-cleavage": 0.415}, {"variant": "GGCCGGCAUGGUCCAAGCCUCCUCGCUGGCGCCGGCUGGGCAACAUUCCGAGGGGUCCGUCCCCUCGGUAAUGGCGAAUGGGACCCA", "note": "[C15A A56U]", "self-cleavage": 0.743}, {"variant": "GGCCGGCAUGGUCUCAGCCUCCUCGCUGGCGCCGGCUGGGCAACAUUCCGAGGGGACCGUCCCCUCGGUAAUUGCGAAUGGGACCCA", "note": "[C14U G73U]", "self-cleavage": 0.309}, {"variant": "GGCCGGCAUGGUCUCAGCCUCCUAGCUGGCGCCGGCUGGGCAACAUUCCGAGGGGACCGUCCCCUCGGUAAUGGCGAAUGGGACCCA", "note": "[C14U C24A]", "self-cleavage": 0.76}, {"variant": "GGCCGGCAUGGUCUCAGCCUCCUGGCUGGCGCCGGCUGGGCAACAUUCCGAGGGGACCGUCCCCUCGGUAAUGGCGAAUGGGACCCA", "note": "[C14U C24G]", "self-cleavage": 0.121}, {"variant": "GGCCGGCAUGGUCUCAGCCUCCUCGCUGGCGCCGGCUGGGCAACAUUCCGAGGGGACCGUCCCCUCGGUAAUGGGGAAUGGGACCCA", "note": "[C14U C75G]", "self-cleavage": 0.353}]}]}
